The target in the test is actin (endogenous nuclear and cytoplasmic actin of Mel-Juso human melanoma cells) (human). Description: cell-based or functional assay.

These results are taken from patent US20120328590A1.

Take “DNase 1 construct C11 (signal peptide deleted, A114F actin-binding-site mutation, SV-40 NLS at the C-terminus) (from UniProt P24855 23-282) (enzyme)”: the TUNEL-positive (apoptotic) cells by laser scanning cytometry, mean worked out at 11% and the cell survival in Colony Forming Assay (CFA), compared to Cat-GFP control is 23.2%.

As to “DNase 1 construct C13 (signal peptide deleted, A114F actin-binding-site mutation, SV-40 NLS at the N-terminus) (from UniProt P24855 23-282) (enzyme)”, the TUNEL-positive (apoptotic) cells by laser scanning cytometry, mean was found to be 5.4% and the cell survival in Colony Forming Assay (CFA), compared to Cat-GFP control amounted to 32.4%.
